Reference: PMC8764033, “Single-molecule analysis of specificity and multivalency in binding of short linear substrate motifs to the APC/C” (Nature Communications, 2022)
“And” between values parts separate entries of the source, which are not always exact repeats. Equal entries are not always repeated. “Also recorded” adds a separate entry of the source.

Legend:
APC/C^Apc10-4A, Cdc20 = experiment: SMOR assay, yeast APC/C^Apc10-4A, Cdc20; format: binding, Saccharomyces cerevisiae
Method: Yeast strains were derivatives of W303 and are listed in Supplementary Table 2. For APC/C purification, we used a strain carrying Cdc16-TAP and lacking Cdh1 (DOM1126); in most experiments, the strain also carried Apc1-GFP (NHY13). Yeast were grown in YPD media to OD600 = 0.8, collected and flash-frozen. Cells were lysed by bead beating in lysis buffer A (50 mM HEPES pH 7.5, 150 mM KCl, 10% glycerol, 0.2% Triton X-100, 63 µM B-glycerophosphate, 48 µM sodium fluoride, 1 µg ml^−1 pepstatin A, 1 µg ml^−1 leupeptin, 1 µg ml^−1 aprotinin, 1 mM PMSF, 1 mM DTT, 0.5 mM EDTA) and APC/C was purified using magnetic IgG beads. The beads were washed using wash buffer A (20 mM HEPES pH 7.5, 150 mM KCl, 10% Glycerol, 0.05% Triton X-100). After incubation with purified Cdh1 or Cdc20, the APC/C was cleaved off the beads with TEV protease in wash buffer A with 0.05% Tween-20 (for single-molecule studies) or 0.05% Triton X-100 (for ensemble assays such as ubiquitylation) and used immediately.
(§1) For all SMOR experiments, 24 × 50 mm high precision glass coverslips (Bioscience Tools) and drilled microscope slides were passivated with a combination of PEG and PEG-biotin (coverslips) or PEG only (slides) following a previously published protocol for SiMPull[31]. Reaction chambers (~20 µl) were created using double-sided tape and epoxy. Protein was immobilized on the surface with 0.2 mg ml^−1 NeutrAvidin in buffer C (20 mM HEPES pH 7.5, 150 mM KCl, 10% glycerol, 0.05% Tween-20, 1 mM DTT). Excess NeutrAvidin was washed away and incubated with either biotin-conjugated mouse monoclonal anti-Strep-Tag II antibody (LSBio, Cat. No. LS-C203632-100) or biotin-conjugated rabbit polyclonal anti-GFP antibody (Rockland, Cat. No. 600-406-215) diluted in buffer C + BSA (0.1 mg ml^−1; Molecular Biology Grade Bovine Serum Albumin). Activator WD40 and activated APC/C (typically 50 µl containing about 65 ng APC/C, of which only a small fraction is immobilized on the glass) were immobilized using anti-Strep-Tag II, while APC/C alone was immobilized with anti-GFP. SMOR results were similar when performed in the buffer (wash buffer B) used in polarization anisotropy.
To capture dynamic protein–protein interactions, dye-labeled substrate diluted in buffer C + BSA was added to the chamber containing immobilized proteins. Interactions were imaged by TIRF microscopy as described below. For optimal signal-to-noise ratio, peptide concentration was no greater than 1 nM. […]
(§2) Microscopy was performed with a Nikon Eclipse TE2000-E with Perfect Focus with a 100 × 1.49na oil, Apo TIRF DIC N2, 0.13-0.2, WD0.12 objective. Movies were recorded using the Andor iXon DU-897E-CSO. […]

Cdh1^WD40 = target: T1, Cdh1^WD40 (Saccharomyces cerevisiae, UniProt P53197); experiment: SMOR assay (single-molecule off-rate, TIRF), yeast Cdh1^WD40; format: binding; conditions: for mean dwell time: representative of two independent experiments, ± SE, ligand ≤1 nM, buffer C + BSA
T1 construct: the WD40 domains of yeast Cdh1 (aa 241–550; pNH144); made in house; host or cells: Sf9 insect cells (baculovirus)
T1 sequence (P53197 241-550): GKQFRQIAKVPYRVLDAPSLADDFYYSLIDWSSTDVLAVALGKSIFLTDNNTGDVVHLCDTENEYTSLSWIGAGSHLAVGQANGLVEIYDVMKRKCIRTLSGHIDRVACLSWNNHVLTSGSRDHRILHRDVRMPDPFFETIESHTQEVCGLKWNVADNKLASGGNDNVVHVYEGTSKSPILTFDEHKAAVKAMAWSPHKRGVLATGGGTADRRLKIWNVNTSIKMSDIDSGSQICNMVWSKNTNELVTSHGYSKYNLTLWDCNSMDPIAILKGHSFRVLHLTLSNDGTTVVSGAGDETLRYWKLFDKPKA
Method: Activators were cloned into the pFastBac HT A vector, with an N-terminal 2xStrep-Tag II. For some experiments, we constructed vectors for expression of the WD40 domains of yeast Cdh1 (aa 241–550; pNH144), human Cdh1 (aa 165–484; pNH164), or human Cdc20 (aa 162–484; pNH188). For SMOR, a C-terminal GFP tag was added. Bacmid plasmids are listed in Supplementary Table 3. Plasmids were transformed into DH10Bac cells, and purified Bacmid was used to transfect Sf9 cells to generate P1 baculovirus, which was used to generate P2 virus. SF9 cells were infected with the P2 virus for 48 h. Flash-frozen pellets were lysed by sonication or high-pressure homogenization in lysis buffer B (50 mM Tris-HCl pH 8, 150 mM KCl, 0.5 mM EDTA, 1 mM DTT, 10% Glycerol, EDTA-free protease inhibitor tablet, 1 µg ml^−1 pepstatin A). After the lysate was applied to the StrepTrap column, the column was washed with wash buffer B (lysis buffer B lacking protease inhibitors) and eluted in the same buffer containing 2.5 mM desthiobiotin.
as §1
To capture dynamic protein–protein interactions, dye-labeled substrate diluted in buffer C + BSA was added to the chamber containing immobilized proteins. Interactions were imaged by TIRF microscopy as described below. For optimal signal-to-noise ratio, peptide concentration was no greater than 1 nM. Protein substrates included Hsl1 aa 667–872 and a C-terminal HaloTag followed by a TAP tag, and were produced by translation in rabbit reticulocyte lysates using TnT Quick Coupled Transcription/Translation System (Promega) (see Supplementary Table 5 for plasmids). Protein was purified with magnetic IgG beads and labeled on the bead with JF549 or JF646 dye so that unbound dye could be washed away. Purified dye-labeled protein was then cleaved from the beads using TEV protease. Before adding substrate to the reaction chamber, oxygen scavenging reagents were added (10 nM protocatechuate-3,4-dioxygenase, 2.5 mM protocatechuic acid, and 1 mM Trolox)[41]. A detailed description of the SMOR analysis pipeline is found in Supplementary Note 1.
as §2

[1] = Supplementary Table 1, replicate 1 (movie listed first)
[2] = Supplementary Table 1, replicate 2 (movie listed second)

APC/C^Apc10-4A, Cdc20, sequence (P26309 whole entry): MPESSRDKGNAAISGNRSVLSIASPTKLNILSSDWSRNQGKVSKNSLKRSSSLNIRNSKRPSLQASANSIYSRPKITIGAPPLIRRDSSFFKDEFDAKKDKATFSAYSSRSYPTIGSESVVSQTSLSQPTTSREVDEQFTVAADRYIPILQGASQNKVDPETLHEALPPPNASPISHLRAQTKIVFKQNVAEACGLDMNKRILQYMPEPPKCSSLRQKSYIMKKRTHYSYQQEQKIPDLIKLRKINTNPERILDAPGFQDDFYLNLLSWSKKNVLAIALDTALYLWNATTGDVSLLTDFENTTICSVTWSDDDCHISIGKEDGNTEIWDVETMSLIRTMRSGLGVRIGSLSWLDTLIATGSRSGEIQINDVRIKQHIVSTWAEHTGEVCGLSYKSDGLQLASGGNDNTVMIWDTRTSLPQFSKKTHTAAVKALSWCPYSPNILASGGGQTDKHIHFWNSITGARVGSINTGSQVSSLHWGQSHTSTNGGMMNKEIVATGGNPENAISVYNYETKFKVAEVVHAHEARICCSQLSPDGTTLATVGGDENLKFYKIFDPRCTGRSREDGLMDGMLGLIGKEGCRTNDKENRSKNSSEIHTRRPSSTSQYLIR

B1: Hsl1^Halo KEN & D: Hsl1 fragment (amino acids 667–872) with C-terminal HaloTag, JF549-labeled (protein)
chain: QNSASKRSLYSLQSISKRSLNLNDLLVFDDPLPSKKPASENVNKSEPHSLESDSDFEILCDQILFGNALDRILEEEEDNEKERDTQRQRQNDTKSSADTFTISGVSTNKENEGPEYPTKIEKNQFNMSYKPSENMSGLSSFPIFEKENTLSSSYLEEQKPKRAALSDITNSFNKMNKQEGMRIEKKIQREQLQKKNDRPSPLKPIQ
modifications: JF549 or JF646 dye covalently bound to the HaloTag; left off: HaloTag, C-terminal, kept | TAP, C-terminal, cleaved
notes: Hsl1 fragment (amino acids 667–872) with C-terminal HaloTag, JF549-labeled
APC/C^Apc10-4A, Cdc20
  binding (in words): the Apc10-4A mutations only slightly reduced Hsl1 dwell time with APC/C^Cdc20; also recorded: only slightly reduced by mutation of Apc10
APC/C^Apc10-4A, Cdc20; [1]
  Dwell Time: 0.449 ± 0.014 s
APC/C^Apc10-4A, Cdc20; [2]
  Dwell Time: 0.372 ± 0.027 s
APC/C^Apc10-4A, Cdc20; representative of two independent experiments, ± SE, ligand ≤1 nM, buffer C + BSA
  mean dwell time: 0.449 s
Cdh1^WD40; [1]
  Dwell Time: 73.520 ± 3.075 s
Cdh1^WD40; [2]
  Dwell Time: 56.447 ± 2.072 s
Cdh1^WD40
  mean dwell time: 56.4 ± 2 s and 56.4 s
Cdh1^WD40; listed as Hsl1 fragment
  mean dwell time: 56.4 ± 2 s
Cdh1^WD40; vs D (and KEN) box peptide
  fold increase in dwell time vs degron peptide alone: 100 fold
